From patent US20140087995A1 (published 2014) come the findings set out here.

Sequences and labels used below:
T1: rat calcitonin receptor (rat, UniProt P32214 25-516)
T1 construct: whole, on cells; Membranes of BHK tk'ts 13 cells transiently transfected with the rat calcitonin receptor; also called rCTR; rat calcitonin (a) receptor
T1 sequence (looked up): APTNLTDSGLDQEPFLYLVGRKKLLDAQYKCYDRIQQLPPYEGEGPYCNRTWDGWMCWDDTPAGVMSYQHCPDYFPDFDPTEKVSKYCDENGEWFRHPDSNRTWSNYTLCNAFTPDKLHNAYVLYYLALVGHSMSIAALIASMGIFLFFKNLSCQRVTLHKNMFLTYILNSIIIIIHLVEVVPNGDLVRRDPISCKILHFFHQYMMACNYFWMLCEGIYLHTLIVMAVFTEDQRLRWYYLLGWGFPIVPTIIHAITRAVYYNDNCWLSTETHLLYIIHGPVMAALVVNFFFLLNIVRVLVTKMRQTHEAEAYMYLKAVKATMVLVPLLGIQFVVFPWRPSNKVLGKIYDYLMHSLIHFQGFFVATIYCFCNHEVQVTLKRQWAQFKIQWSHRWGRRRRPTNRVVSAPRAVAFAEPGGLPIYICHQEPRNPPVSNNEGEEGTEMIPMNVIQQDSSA

T2: human calcitonin receptor (human, UniProt P30988 25-474)
T2 construct: whole, on cells; Membranes of a BHK tk'ts 13 cell line stably transfected with the human calcitonin receptor; also called hCTR; hCT
T2 sequence (looked up): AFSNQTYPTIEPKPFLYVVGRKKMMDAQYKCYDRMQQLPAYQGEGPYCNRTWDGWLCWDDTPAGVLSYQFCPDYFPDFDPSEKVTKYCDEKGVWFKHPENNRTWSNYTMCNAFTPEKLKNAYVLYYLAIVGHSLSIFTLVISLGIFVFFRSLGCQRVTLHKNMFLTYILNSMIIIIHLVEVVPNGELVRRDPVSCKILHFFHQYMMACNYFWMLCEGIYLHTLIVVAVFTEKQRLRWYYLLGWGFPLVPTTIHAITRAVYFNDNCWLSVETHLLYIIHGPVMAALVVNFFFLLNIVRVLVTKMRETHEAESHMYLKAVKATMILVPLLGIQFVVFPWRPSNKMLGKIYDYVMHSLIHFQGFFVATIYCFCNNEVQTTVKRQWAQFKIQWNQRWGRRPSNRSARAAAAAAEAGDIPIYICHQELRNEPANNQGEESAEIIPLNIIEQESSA

T3: rat amylin receptor (rat calcitonin receptor + rat RAMP 3) (rat, UniProt P32214 25-516; Q9JJ73 23-147)
T3 construct: whole, on cells; Membranes of BHK tk'ts 13 cells transiently transfected with the rat calcitonin receptor and rat RAMP 3; also called rAmylin-R; rat amylin 3(a) receptor
T3 sequence (looked up) 1: T1 sequence (looked up)
T3 sequence (looked up) 2: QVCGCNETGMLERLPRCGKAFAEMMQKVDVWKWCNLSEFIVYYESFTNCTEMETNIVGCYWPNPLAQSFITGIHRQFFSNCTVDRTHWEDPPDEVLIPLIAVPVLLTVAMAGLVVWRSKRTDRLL

B1: N^ε-[(4S)-4-carboxy-4-(19-carboxynonadecanoylamino)butanoyl]Lys[Arg1,Arg17,Pro21,Pro27,His35]-h-amylin (peptide)
peptide: K([γGlu-C20 diacid])RCNTATCATQRLANFLRHSSPNFGAIPSSTNVGSHTY-NH2
modifications: disulfide 3-8; N-terminus assumed
SMILES: CC[C@H](C)[C@H](NC(=O)[C@H](C)NC(=O)CNC(=O)[C@H](Cc1ccccc1)NC(=O)[C@H](CC(N)=O)NC(=O)[C@@H]1CCCN1C(=O)[C@H](CO)NC(=O)[C@H](CO)NC(=O)[C@H](Cc1c[nH]cn1)NC(=O)[C@H](CCCNC(=N)N)NC(=O)[C@H](CC(C)C)NC(=O)[C@H](Cc1ccccc1)NC(=O)[C@H](CC(N)=O)NC(=O)[C@H](C)NC(=O)[C@H](CC(C)C)NC(=O)[C@H](CCCNC(=N)N)NC(=O)[C@H](CCC(N)=O)NC(=O)[C@@H](NC(=O)[C@H](C)NC(=O)[C@@H]1CSSC[C@H](NC(=O)[C@H](CCCNC(=N)N)NC(=O)[C@@H](N)CCCCNC(=O)CC[C@H](NC(=O)CCCCCCCCCCCCCCCCCCC(=O)O)C(=O)O)C(=O)N[C@@H](CC(N)=O)C(=O)N[C@@H]([C@@H](C)O)C(=O)N[C@@H](C)C(=O)N[C@@H]([C@@H](C)O)C(=O)N1)[C@@H](C)O)C(=O)N1CCC[C@H]1C(=O)N[C@@H](CO)C(=O)N[C@@H](CO)C(=O)N[C@H](C(=O)N[C@@H](CC(N)=O)C(=O)N[C@H](C(=O)NCC(=O)N[C@@H](CO)C(=O)N[C@@H](Cc1c[nH]cn1)C(=O)N[C@H](C(=O)N[C@@H](Cc1ccc(O)cc1)C(N)=O)[C@@H](C)O)C(C)C)[C@@H](C)O
notes: modifications are with respect to human amylin; also called compound 44
B2: N^-1-[(4S)-4-carboxy-4-(19-carboxynonadecanoylamino)butanoyl]-Gly[Arg1,Arg17,Pro21,Pro27,His35]-h-amylin (peptide)
peptide: {C20 diacid-γGlu}-GRCNTATCATQRLANFLRHSSPNFGAIPSSTNVGSHTY-NH2
modifications: disulfide 3-8
SMILES: CC[C@H](C)[C@H](NC(=O)[C@H](C)NC(=O)CNC(=O)[C@H](Cc1ccccc1)NC(=O)[C@H](CC(N)=O)NC(=O)[C@@H]1CCCN1C(=O)[C@H](CO)NC(=O)[C@H](CO)NC(=O)[C@H](Cc1c[nH]cn1)NC(=O)[C@H](CCCNC(=N)N)NC(=O)[C@H](CC(C)C)NC(=O)[C@H](Cc1ccccc1)NC(=O)[C@H](CC(N)=O)NC(=O)[C@H](C)NC(=O)[C@H](CC(C)C)NC(=O)[C@H](CCCNC(=N)N)NC(=O)[C@H](CCC(N)=O)NC(=O)[C@@H](NC(=O)[C@H](C)NC(=O)[C@@H]1CSSC[C@H](NC(=O)[C@H](CCCNC(=N)N)NC(=O)CNC(=O)CC[C@H](NC(=O)CCCCCCCCCCCCCCCCCCC(=O)O)C(=O)O)C(=O)N[C@@H](CC(N)=O)C(=O)N[C@@H]([C@@H](C)O)C(=O)N[C@@H](C)C(=O)N[C@@H]([C@@H](C)O)C(=O)N1)[C@@H](C)O)C(=O)N1CCC[C@H]1C(=O)N[C@@H](CO)C(=O)N[C@@H](CO)C(=O)N[C@H](C(=O)N[C@@H](CC(N)=O)C(=O)N[C@H](C(=O)NCC(=O)N[C@@H](CO)C(=O)N[C@@H](Cc1c[nH]cn1)C(=O)N[C@H](C(=O)N[C@@H](Cc1ccc(O)cc1)C(N)=O)[C@@H](C)O)C(C)C)[C@@H](C)O
notes: modifications are with respect to human amylin; also called compound 47
B3: N^-1-[(4S)-4-carboxy-4-(19-carboxynonadecanoylamino)butanoyl]-Gly[Arg1,Arg17,Pro21,Pro27]-h-amylin (peptide)
peptide: {C20 diacid-γGlu}-GRCNTATCATQRLANFLRHSSPNFGAIPSSTNVGSNTY-NH2
modifications: disulfide 3-8
SMILES: CC[C@H](C)[C@H](NC(=O)[C@H](C)NC(=O)CNC(=O)[C@H](Cc1ccccc1)NC(=O)[C@H](CC(N)=O)NC(=O)[C@@H]1CCCN1C(=O)[C@H](CO)NC(=O)[C@H](CO)NC(=O)[C@H](Cc1c[nH]cn1)NC(=O)[C@H](CCCNC(=N)N)NC(=O)[C@H](CC(C)C)NC(=O)[C@H](Cc1ccccc1)NC(=O)[C@H](CC(N)=O)NC(=O)[C@H](C)NC(=O)[C@H](CC(C)C)NC(=O)[C@H](CCCNC(=N)N)NC(=O)[C@H](CCC(N)=O)NC(=O)[C@@H](NC(=O)[C@H](C)NC(=O)[C@@H]1CSSC[C@H](NC(=O)[C@H](CCCNC(=N)N)NC(=O)CNC(=O)CC[C@H](NC(=O)CCCCCCCCCCCCCCCCCCC(=O)O)C(=O)O)C(=O)N[C@@H](CC(N)=O)C(=O)N[C@@H]([C@@H](C)O)C(=O)N[C@@H](C)C(=O)N[C@@H]([C@@H](C)O)C(=O)N1)[C@@H](C)O)C(=O)N1CCC[C@H]1C(=O)N[C@@H](CO)C(=O)N[C@@H](CO)C(=O)N[C@H](C(=O)N[C@@H](CC(N)=O)C(=O)N[C@H](C(=O)NCC(=O)N[C@@H](CO)C(=O)N[C@@H](CC(N)=O)C(=O)N[C@H](C(=O)N[C@@H](Cc1ccc(O)cc1)C(N)=O)[C@@H](C)O)C(C)C)[C@@H](C)O
notes: modifications are with respect to human amylin; also called compound 46
B4: N^ε-[2-[2-[2-[[(4S)-4-carboxy-4-(19-carboxynonadecanoylamino)butanoyl]amino]ethoxy]ethoxy]acetyl]Lys[Arg1,Arg17,Pro21,Pro27,His35]-h-amylin (peptide)
peptide: K([AEEA-γGlu-C20 diacid])RCNTATCATQRLANFLRHSSPNFGAIPSSTNVGSHTY-NH2
modifications: disulfide 3-8; N-terminus assumed
SMILES: CC[C@H](C)[C@H](NC(=O)[C@H](C)NC(=O)CNC(=O)[C@H](Cc1ccccc1)NC(=O)[C@H](CC(N)=O)NC(=O)[C@@H]1CCCN1C(=O)[C@H](CO)NC(=O)[C@H](CO)NC(=O)[C@H](Cc1c[nH]cn1)NC(=O)[C@H](CCCNC(=N)N)NC(=O)[C@H](CC(C)C)NC(=O)[C@H](Cc1ccccc1)NC(=O)[C@H](CC(N)=O)NC(=O)[C@H](C)NC(=O)[C@H](CC(C)C)NC(=O)[C@H](CCCNC(=N)N)NC(=O)[C@H](CCC(N)=O)NC(=O)[C@@H](NC(=O)[C@H](C)NC(=O)[C@@H]1CSSC[C@H](NC(=O)[C@H](CCCNC(=N)N)NC(=O)[C@@H](N)CCCCNC(=O)COCCOCCNC(=O)CC[C@H](NC(=O)CCCCCCCCCCCCCCCCCCC(=O)O)C(=O)O)C(=O)N[C@@H](CC(N)=O)C(=O)N[C@@H]([C@@H](C)O)C(=O)N[C@@H](C)C(=O)N[C@@H]([C@@H](C)O)C(=O)N1)[C@@H](C)O)C(=O)N1CCC[C@H]1C(=O)N[C@@H](CO)C(=O)N[C@@H](CO)C(=O)N[C@H](C(=O)N[C@@H](CC(N)=O)C(=O)N[C@H](C(=O)NCC(=O)N[C@@H](CO)C(=O)N[C@@H](Cc1c[nH]cn1)C(=O)N[C@H](C(=O)N[C@@H](Cc1ccc(O)cc1)C(N)=O)[C@@H](C)O)C(C)C)[C@@H](C)O
notes: modifications are with respect to human amylin; also called compound 45
B5: N^ε1-[(4S)-4-carboxy-4-(19-carboxynonadecanoylamino)butanoyl]-[Arg17,Pro21,Pro27]-h-amylin (peptide)
peptide: K([γGlu-C20 diacid])CNTATCATQRLANFLRHSSPNFGAIPSSTNVGSNTY-NH2
modifications: disulfide 2-7; N-terminus assumed
SMILES: CC[C@H](C)[C@H](NC(=O)[C@H](C)NC(=O)CNC(=O)[C@H](Cc1ccccc1)NC(=O)[C@H](CC(N)=O)NC(=O)[C@@H]1CCCN1C(=O)[C@H](CO)NC(=O)[C@H](CO)NC(=O)[C@H](Cc1c[nH]cn1)NC(=O)[C@H](CCCNC(=N)N)NC(=O)[C@H](CC(C)C)NC(=O)[C@H](Cc1ccccc1)NC(=O)[C@H](CC(N)=O)NC(=O)[C@H](C)NC(=O)[C@H](CC(C)C)NC(=O)[C@H](CCCNC(=N)N)NC(=O)[C@H](CCC(N)=O)NC(=O)[C@@H](NC(=O)[C@H](C)NC(=O)[C@@H]1CSSC[C@H](NC(=O)[C@@H](N)CCCCNC(=O)CC[C@H](NC(=O)CCCCCCCCCCCCCCCCCCC(=O)O)C(=O)O)C(=O)N[C@@H](CC(N)=O)C(=O)N[C@@H]([C@@H](C)O)C(=O)N[C@@H](C)C(=O)N[C@@H]([C@@H](C)O)C(=O)N1)[C@@H](C)O)C(=O)N1CCC[C@H]1C(=O)N[C@@H](CO)C(=O)N[C@@H](CO)C(=O)N[C@H](C(=O)N[C@@H](CC(N)=O)C(=O)N[C@H](C(=O)NCC(=O)N[C@@H](CO)C(=O)N[C@@H](CC(N)=O)C(=O)N[C@H](C(=O)N[C@@H](Cc1ccc(O)cc1)C(N)=O)[C@@H](C)O)C(C)C)[C@@H](C)O
notes: modifications are with respect to human amylin; also called compound 48

Numbered stars: 1 amine (or outer) side, 2 acyl side, 3 side chain; on linkers, the order of the positions; unused ones are H or OH. Bridge positions count the residues as written; N and C are the ends. Side chains are listed from the residue outwards. Ends that are not written are not given here. * marks the point of attachment. C20 diacid = O=C(O)CCCCCCCCCCCCCCCCCCC(=O)*; γGlu = O=C(O)[C@H](CCC(=O)[*:2])N[*:1]; AEEA = NCCOCCOCC(=O)O

In the first test the target is T1, rat calcitonin receptor. Briefly: SPA competition vs 125I-calcitonin, membranes with rat CTR (Assay VIII).
Turning to B1, the concentration for half-maximal inhibition (IC50) was 19.6 nM.

With B2, the concentration for half-maximal inhibition (IC50) is 17.1 nM.

With B3, the IC50 amounted to 46.8 nM.

B4: the half-maximal inhibitory concentration (IC50) was found to be 41.8 nM.

Take B5: the IC50 amounted to 112 nM.

The next test addresses T1, rat calcitonin receptor. Briefly: IC50 at rCTR divided by IC50 at rAmylin-R (reference).
As to B1, the “Ratio rCT/rAmylin binding” value came to 53.3.

As to B2, the “Ratio rCT/rAmylin binding” value came out at 84.3.

Turning to B3, the “Ratio rCT/rAmylin binding” value turned out to be 142.

In the case of B4, the “Ratio rCT/rAmylin binding” value was 67.1.

Take B5: the “Ratio rCT/rAmylin binding” value was determined as 201.

For another test, the target named is T2, human calcitonin receptor. Briefly: IC50 at hCTR divided by IC50 at hAmylin-R (reference). An outline of the steps: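 IC₅₀ values were derived by one-site competition analysis of SPA counts. Cell membranes (35 ng/μL) with SPA beads were incubated with test compounds for 120 min at 25° C in Hepes buffer, pH 7.4, containing CaCl2, MgCl₂, OA and Tween20.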
In the case of B1, the “Ratio hCT/hAmylin binding” value came to 17.7.

In the case of B2, the “Ratio hCT/hAmylin binding” value was determined as 44.9.

B3: the “Ratio hCT/hAmylin binding” value was 48.9.

Take B4: the “Ratio hCT/hAmylin binding” value was 26.8.

In the case of B5, the “Ratio hCT/hAmylin binding” value turned out to be 69.7.

Another test addresses T3, rat amylin receptor (rat calcitonin …). The test can be described thus: SPA competition vs 125I-rat amylin, membranes with rat CTR + rat RAMP3 (Assay VI).
As for B1, the IC50 was 0.369 nM.

As for B2, the IC50 is 0.203 nM.

Take B3: the concentration for half-maximal inhibition (IC50) amounted to 0.33 nM.

For the molecule B4, the IC50 turned out to be 0.623 nM.

As to B5, the IC50 was 0.558 nM.

In general, IC50 refers to the midpoint of a concentration-inhibition curve.
